According to FireProtDB (doi:10.1038/srep15545):

B1: Divalent-cation tolerance protein CutA, P69488 (parent)
chain: MLDEKSSNTASVVVLCTAPDEATAQDLAAKVLAEKLAACATLIPGATSLYYWEGKLEQEYEVQMILKTTVSHQQALLECLKSHHPYQTPELLVLPVTHGDTDYLSWLNASLR

Variants of: B1
Settings: Escherichia coli (strain K12), pH 9, Thermal, DSC, Glycine 50mM, reversible: yes, whole UniProt chain shown

Variant	Tm (structure 1NAQ)	change of melting temperature, mutant - wild type (higher = more stable) (structure 1NAQ)	unfolding enthalpy (calorimetric) (structure 1NAQ)	Tm (structure 4Y65)	change of melting temperature, mutant - wild type (higher = more stable) (structure 4Y65)	unfolding enthalpy (calorimetric) (structure 4Y65)
S11V E61V	113 °C	27.6 °C	375 kcal/mol	–	–	–
S110R	117 °C	31.7 °C	391 kcal/mol	–	–	–
S48K	112 °C	26.6 °C	280 kcal/mol	118 °C	32.7 °C	337 kcal/mol
H72K	118 °C	32.8 °C	364 kcal/mol	–	–	–
T88R	118 °C	32 °C	359 kcal/mol	–	–	–
S48K H72K S82K Q87K T88R	137 °C	51.2 °C	416 kcal/mol	–	–	–
C39D	–	–	–	105 °C	19.8 °C	286 kcal/mol
S11V	103 °C	17.1 °C	311 kcal/mol	–	–	–
E61V	101 °C	15.4 °C	293 kcal/mol	–	–	–
Q87K	117 °C	31.2 °C	340 kcal/mol	–	–	–
Q87K T88R	122 °C	36.8 °C	378 kcal/mol	–	–	–
T17K	107 °C	21.6 °C	314 kcal/mol	–	–	–
S82R	117 °C	31.5 °C	346 kcal/mol	–	–	–
S82K	117 °C	31.3 °C	353 kcal/mol	–	–	–
